# Assay results: patent US20230331823A1
# How the values were obtained:
# [1] = biological target: SARS-CoV-2 stabilized Spike trimer (S-2P) (SARS-CoV-2) (UniProt P0DTC2)
# [2] = biological target: SARS-CoV-2 RBD (pCoV08, RBD-His6) (SARS-CoV-2 (Wuhan-Hu-1)) (UniProt P0DTC2); assay: BLI, RBD on probe, antibody, then hACE2 (blocked ligand)
substance,measurement,setting,value
CR3022 (antibody),EC50 (read off the curve),[1],30 µg/mL
same,EC50 (read off the curve),[2],10 µg/mL
